# Source: patent EP4610267A1, “CYCLIC DINUCLEOTIDES AND CONJUGATES THEREOF WITH ANTIBODIES” (priority 2024, dated 2025)
# T1: TROP2 (UniProt P09758 27-323, limits assumed)
# T1 sequence (looked up): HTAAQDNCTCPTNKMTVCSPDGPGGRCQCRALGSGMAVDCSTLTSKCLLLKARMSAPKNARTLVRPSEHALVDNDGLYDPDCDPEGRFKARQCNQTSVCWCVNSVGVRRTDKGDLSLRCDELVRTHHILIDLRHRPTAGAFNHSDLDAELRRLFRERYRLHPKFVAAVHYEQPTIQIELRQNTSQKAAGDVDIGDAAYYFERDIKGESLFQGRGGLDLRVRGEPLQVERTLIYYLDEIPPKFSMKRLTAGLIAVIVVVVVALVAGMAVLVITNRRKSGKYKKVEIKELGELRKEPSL
# Columns and labels:
# [1] = Compound-to-antibody ratio (DAR) of antibody CDN conjugates by LC-MS
# Procedure: Antibody CDN-conjugates were analyzed to determine the extent of conjugation. A compound-to-antibody ratio was extrapolated from LC-MS data for reduced samples. LC-MS allows quantitation of the average number of molecules of linker-payload attached to an antibody in a conjugate sample. Mass spectral data enables identification of the component species in the mixture, e.g., LC, LC+1, LC+2, HC, HC+1, HC+2, etc. From the average loading on the LC and HC chains, the average compound to antibody ratio can be calculated for an antibody conjugate. A compound-to-antibody ratio for a given conjugate sample represents the average number of compound (linker-payload) molecules attached to a tetrameric antibody containing two light chains and two heavy chains. The samples were reduced with 40 mM TCEP or 5.5 mM DTT, injected onto a MassPREP Micro Desalting column (20 µm, 5-mm by 2.1-mm ID, Waters) equilibrated in 0.1% formic acid (FA) in H2O and eluted by a fast gradient (4min) to 0.1% FA in acetonitrile. The separation was carried out by AQUITY UPLC I-Class system (Waters) and was on-line coupled to Mass Spectrometer Synapt G2 (Waters) to acquire mass spectra using electrospray ionization in positive mode. The TOF mass range was set from m/z 500 to 4000. The raw spectrum was subtracted and deconvoluted (MaxEnt 1, Waters) to produce the final spectrum. Conjugates were profiled using analytical size-exclusion chromatography on Superdex 200 equilibrated in PBS pH7.4; aggregation was analyzed based on analytical size exclusion chromatography.
# [2] = In vitro mouse plasma stability of antibody-CDN conjugates (payload CDN 2.2 retention on mAb by LC-MS); assay type: in vitro ADME; details: retention of CDN 2.2 on mAb
# Procedure: (§1) In vitro plasma stability of ADC was performed by spiking mouse plasma with antibody-CDN conjugates (final concentration 100µg/mL). Samples were incubated in a 37°C incubator with 5% CO2, aliquots were taken at various time points and stored frozen for analysis.
# (§2) Briefly, 25µL of plasma samples were incubated with biotinylated anti-human Fcy fragment mAb (final concetration 0.18mg/mL, Jackson ImmunoResearch cat # 109-065-098) for 30 min and then mixed with 30 µL Dynabead MyOne Streptavidin T1 (Invitrogen cat # 65604D) and 70 µL PBS. After 1 hour incubation, the beads were separated on a magnet, washed with PBS containing 0.05% Tween20, PBS and water, and ADCs were eluted in the presence of 0.2% of formic acid in water. Eluate was neutralized by adding ammonium formate (400mM final concentration) and ADCs were reduced with TCEP (40mM final concentration) for 30 minutes at room temperature. Samples were then measured by LC-MS and analyzed for compound-to-antibody ratio as described above.
# [3] = as above; assay type: in vitro ADME
# Procedure: as §1, §2
# TROP2 = target: T1, TROP2; assay: cell-based or functional assay
# Her2 = Her2 (UniProt P04626); assay: cell-based or functional assay
# [4] = compound conjugated to anti Her2 mA2 via interchain cysteines
# [5] = monoclonal antibody: anti TROP2 mA5, 37°C
Molecule,HCC1954 IP10 EC50 (TROP2),TROP2+ 293T EC50 (TROP2),further results
"4-((S)-2-((S)-2-(2-(2,5-dioxo-2,5-dihydro-1H-pyrrol-1-yl)acetamido)-3-methylbutanamido)-5-ureidopentanamido)benzyl (2-(((9-((6R,8R,9S,13aR,15R,16R,16aR,17R)-16,17-difluoro-3,11-dimercapto-3,11-dioxido-8-(6-oxo-1,6-dihydro-9H-purin-9-yl)decahydro-6,9-methanofuro[3,2-m][1,3,6,9,12]pentaoxa[2,10]diphosphacyclopentadecin-15-yl)-9H-purin-6-yl)carbamoyl)oxy)ethyl)(methyl)carbamate [Compound 3.3]",,,"Drug Antibody ratio (DAR) [1, 4]: 3.7; Drug Antibody ratio (DAR) ([1]; compound conjugated to isotype mAb (Table 18)): 4.0; Mouse plasma T ½ ([2]; monoclonal antibody: anti Her2 mA2, 37°C): >15 days; Mouse plasma T ½ [2, 5]: >15 days"
"4-((S)-2-((S)-2-(2-(2,5-dioxo-2,5-dihydro-1H-pyrrol-1-yl)acetamido)-3-methylbutanamido)-5-ureidopentanamido)benzyl (9-((6R,8R,9S,13aR,15R,16R,16aR,17R)-16,17-difluoro-3,11-dimercapto-3,1 1-dioxido-8-(6-oxo-1,6-dihydro-9H-purin-9-yl)decahydro-6,9-methanofuro[3,2-m][1,3,6,9,12]pentaoxa[2,10]diphosphacyclopentadecin-15-yl)-9H-purin-6-yl)carbamate [Compound 3.13]",,,"Mouse plasma T ½ [2, 5]: 9.6 days"
"CC(C)[C@H](NC(=O)CN1C(=O)C=CC1=O)C(=O)N[C@@H](CCCNC(N)=O)C(=O)Nc1ccc(COC(=O)N(C)CCOC(=O)Nc2ncnc3c2ncn3[C@@H]2O[C@H]3COP(=O)(S)O[C@@H]4[C@H](F)[C@@H](COP(=O)(S)OC[C@H]3[C@H]2F)O[C@H]4n2cnc3c(=O)[nH]cnc32)cc1 (stereo partly drawn) [Compound 3.3, 4-((S)-2-((S)-2-(2-(2,5-dioxo-2,5-dihydro-1H-pyrrol-1-yl)acetamido)-3-methylbutanamido)-5-ureidopentanamido)benzyl (2-(((9-((6R,8R,9S,13aR,15R,16R,16aR,17R)-16,17-difluoro-3,11-dimercapto-3,11-dioxido-8-(6-oxo-1,6-dihydro-9H-purin-9-yl)decahydro-6,9-methanofuro[3,2-m][1,3,6,9,12]pentaoxa[2,10]diphosphacyclopentadecin-15-yl)-9H-purin-6-yl)carbamoyl)oxy)ethyl)(methyl)carbamate]",,,attachment to anti Her2 mAb2 in mouse plasma ([3]; attached to anti Her2 mAb2 via interchain cysteines (Fig. 3)): stable over period up to 15 days; retention on anti-TROP2 mAb5 ([3]; attached to engineered light chain V110C and heavy chain S375C of mAb5 (Fig. 4)): excellent retention
"(2S)-N-((2S)-1-((4-((((6R,8R,9S,13aR,15R,16R,16aR,17R)-15-(6-amino-9H-purin-9-yl)-16,17-difluoro-3-mercapto-3,11-dioxido-8-(6-oxo-1,6-dihydro-9H-purin-9-yl)decahydro-6,9-methanofuro[3,2-m][1,3,6,9,12]pentaoxa[2,10]diphosphacyclopentadecin-11-yl)thio)methyl)phenyl)amino)-1-oxopropan-2-yl)-2-(2-(2,5-dioxo-2,5-dihydro-1H-pyrrol-1-yl)acetamido)-3-methylbutanamide [Compound 3.19, reference compound]",,,"Drug Antibody ratio (DAR) [1, 4]: 2.5"
"anti-TROP2 mAb5 (Sacituzumab, heavy chain S375C, light chain V110C) conjugated with Compound 3.3 (antibody, human IgG1, V domains shown, Compound 3.3 on engineered C110 (EU numbering); Compound 3.3 on engineered C375 (EU numbering); DAR 3.7 for the whole antibody) VH: QVQLQQSGSELKKPGASVKVSCKASGYTFTNYGMNWVKQAPGQGLKWMGWINTYTGEPTYTDDFKGRFAFSLDTSVSTAYLQISSLKADDTAVYFCARGGFGSSYWYFDVWGQGSLVTVSS VL: DIQLTQSPSSLSASVGDRVSITCKASQDVSIAVAWYQQKPGKAPKLLIYSASYRYTGVPDRFSGSGSGTDFTLTISSLQPEDFAVYYCQQHYITPLTFGAGTKVEIKR",8 nM,8 nM,
"anti-TROP2 mAb5 (Sacituzumab, heavy chain S375C, light chain V110C) conjugated with Compound 3.13 (antibody, human IgG1, V domains shown, Compound 3.13 on engineered C110 (EU numbering); Compound 3.13 on engineered C375 (EU numbering); DAR 3.3 for the whole antibody) VH: QVQLQQSGSELKKPGASVKVSCKASGYTFTNYGMNWVKQAPGQGLKWMGWINTYTGEPTYTDDFKGRFAFSLDTSVSTAYLQISSLKADDTAVYFCARGGFGSSYWYFDVWGQGSLVTVSS VL: DIQLTQSPSSLSASVGDRVSITCKASQDVSIAVAWYQQKPGKAPKLLIYSASYRYTGVPDRFSGSGSGTDFTLTISSLQPEDFAVYYCQQHYITPLTFGAGTKVEIKR",2 nM,3 nM,
"anti-TROP2 mAb5 (Sacituzumab, heavy chain S375C, light chain V110C) conjugated with Compound 3.18 (antibody, human IgG1, V domains shown, Compound 3.18 on engineered C110 (EU numbering); Compound 3.18 on engineered C375 (EU numbering); DAR 3.6 for the whole antibody) VH: QVQLQQSGSELKKPGASVKVSCKASGYTFTNYGMNWVKQAPGQGLKWMGWINTYTGEPTYTDDFKGRFAFSLDTSVSTAYLQISSLKADDTAVYFCARGGFGSSYWYFDVWGQGSLVTVSS VL: DIQLTQSPSSLSASVGDRVSITCKASQDVSIAVAWYQQKPGKAPKLLIYSASYRYTGVPDRFSGSGSGTDFTLTISSLQPEDFAVYYCQQHYITPLTFGAGTKVEIKR",6 nM,2 nM,
"anti-TROP2 mAb5 (Sacituzumab, heavy chain S375C, light chain V110C) conjugated with Compound 3.16 (antibody, human IgG1, V domains shown, Compound 3.16 on engineered C110 (EU numbering); Compound 3.16 on engineered C375 (EU numbering); DAR 3.3 for the whole antibody) VH: QVQLQQSGSELKKPGASVKVSCKASGYTFTNYGMNWVKQAPGQGLKWMGWINTYTGEPTYTDDFKGRFAFSLDTSVSTAYLQISSLKADDTAVYFCARGGFGSSYWYFDVWGQGSLVTVSS VL: DIQLTQSPSSLSASVGDRVSITCKASQDVSIAVAWYQQKPGKAPKLLIYSASYRYTGVPDRFSGSGSGTDFTLTISSLQPEDFAVYYCQQHYITPLTFGAGTKVEIKR",5 nM,4 nM,
"anti-TROP2 mAb5 (Sacituzumab, heavy chain S375C, light chain V110C) conjugated with Compound 3.17 (antibody, human IgG1, V domains shown, Compound 3.17 on engineered C110 (EU numbering); Compound 3.17 on engineered C375 (EU numbering); DAR 3.6 for the whole antibody) VH: QVQLQQSGSELKKPGASVKVSCKASGYTFTNYGMNWVKQAPGQGLKWMGWINTYTGEPTYTDDFKGRFAFSLDTSVSTAYLQISSLKADDTAVYFCARGGFGSSYWYFDVWGQGSLVTVSS VL: DIQLTQSPSSLSASVGDRVSITCKASQDVSIAVAWYQQKPGKAPKLLIYSASYRYTGVPDRFSGSGSGTDFTLTISSLQPEDFAVYYCQQHYITPLTFGAGTKVEIKR",8 nM,3 nM,
"isotype mAb Libivirumab (anti HBsAg mAb) conjugated with Compound 3.4 (antibody, human IgG1, kappa, V domains shown) VH: QVQLVESGGGVVRPGRSLRLSCAASGFAFSDYSINWVRQAPGKGLEWVAIISYDGRITYYRDSVKGRFTISRDDSKNTLYLQMNSLRTEDTAVYYCARQYYDFWSGSSVGRNYDGMDVWGLGTTVTVSS VL: DIVMTQSPLSLSVTPGEPASISCRSSQSLLHRSGNNYLDWYLQKPGHSPQLLIYVGSNRASGVPDRFSGSGSGTEYTLKISRVEAEDVGVYYCMQALQTPRTFGQGTKLEIKR",,,HCC1954 IP10 EC50 (Her2): > 1000 nM
"isotype mAb Libivirumab (anti HBsAg mAb) conjugated with Compound 3.13 (antibody, human IgG1, kappa, V domains shown) VH: QVQLVESGGGVVRPGRSLRLSCAASGFAFSDYSINWVRQAPGKGLEWVAIISYDGRITYYRDSVKGRFTISRDDSKNTLYLQMNSLRTEDTAVYYCARQYYDFWSGSSVGRNYDGMDVWGLGTTVTVSS VL: DIVMTQSPLSLSVTPGEPASISCRSSQSLLHRSGNNYLDWYLQKPGHSPQLLIYVGSNRASGVPDRFSGSGSGTEYTLKISRVEAEDVGVYYCMQALQTPRTFGQGTKLEIKR",> 1000 nM,> 1000 nM,
"isotype mAb Libivirumab (anti HBsAg mAb) conjugated with Compound 3.3 (antibody, human IgG1, kappa, V domains shown) VH: QVQLVESGGGVVRPGRSLRLSCAASGFAFSDYSINWVRQAPGKGLEWVAIISYDGRITYYRDSVKGRFTISRDDSKNTLYLQMNSLRTEDTAVYYCARQYYDFWSGSSVGRNYDGMDVWGLGTTVTVSS VL: DIVMTQSPLSLSVTPGEPASISCRSSQSLLHRSGNNYLDWYLQKPGHSPQLLIYVGSNRASGVPDRFSGSGSGTEYTLKISRVEAEDVGVYYCMQALQTPRTFGQGTKLEIKR",> 1000 nM,> 1000 nM,HCC1954 IP10 EC50 (Her2): > 1000 nM
